Holding throughout (assay): ELISA; decline multiple of Top against CD73-ND
(An ELISA detects its analyte on a solid surface through an enzyme-linked reagent.)

The target in one experiment is T1, CD73-ND-his (human, UniProt P21589 27-317).
T1 construct: Biotinylated and captured on streptavidin in the ELISA
T1 sequence: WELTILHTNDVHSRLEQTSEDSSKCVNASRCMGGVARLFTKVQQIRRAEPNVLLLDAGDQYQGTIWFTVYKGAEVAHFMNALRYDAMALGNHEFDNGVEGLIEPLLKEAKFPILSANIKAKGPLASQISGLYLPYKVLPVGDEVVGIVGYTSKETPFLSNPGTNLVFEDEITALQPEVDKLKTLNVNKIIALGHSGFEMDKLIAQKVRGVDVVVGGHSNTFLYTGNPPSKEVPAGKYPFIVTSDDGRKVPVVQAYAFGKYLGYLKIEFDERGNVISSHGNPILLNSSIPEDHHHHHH
As for the experimental part: (§1) The ELISA plates were coated with SA protein diluted to 1.5 μg/mL in coating buffer (50 mM carbonate coating buffer, pH 9.6) and incubated overnight at 4° C. The supernatant was discarded, and the plates were washed three times with PBST. Then, 5% skimmed milk powder prepared with PBS was added for blocking and the plates were incubated for 2 h at 37° C. After washing the plates once with PBST, CD73-biotin protein (prepared by biotinylating CD73-His protein according to the EZ-Link NHS-Biotin Reagent instructions) was diluted to 0.5 μg/mL and added at 100 μL/well for incubation at room temperature for 1 h. The plates were washed three times with PBST, and the prepared murine-derived monoclonal antibodies against human CD73 were serially diluted with 1% BSA buffer prepared with PBST and added to the ELISA plates at 100 μl/well. The plates were incubated at 37° C. for 1 h. After washing the plates three times with PBST, HRP-labeled goat anti-mouse IgG secondary antibody was added and the plates were incubated for 30 min at 37° C. After washing the plates three times with PBST, the residual droplets were patted dry on absorbent paper as much as possible. Then, 100 μl of TMB color developing solution was added to each well, and the plates were incubated in the dark at room temperature for 5 min for color development. Subsequently, 50 μl of 2M H₂SO₄ stop solution was added to each well to terminate the substrate reaction. The OD values were read at 450 nm using a multimode microplate reader to analyze the binding ability of the tested antibodies to the target antigen human CD73-His.
(§2) Referring to the experimental method in Example 3, the affinity of 48A11-HuV33 for various mutant proteins of CD73-ND was determined. The SA protein was diluted to 1 μg/mL for coating the ELISA plates, and the biotinylated CD73 protein (CD73-biotin) was used at a concentration of 0.1 μg/mL.

A further experiment concerns the target T2, CD73-ND-K182A (human, UniProt P21589 27-317).
T2 construct: Alanine mutant of CD73-ND
T2 sequence: T1 sequence with K182A
The protocol:
as §1, §2

A further experiment has as its target T3, CD73-ND-V144A (human, UniProt P21589 27-317).
T3 construct: Alanine mutant of CD73-ND
T3 sequence: T1 sequence with V144A
As for the experimental part: as §1, §2

The target in the next experiment is T4, CD73-ND-K180A (human, UniProt P21589 27-317).
T4 construct: Alanine mutant of CD73-ND
T4 sequence: T1 sequence with K180A
As for the experimental part: as §1, §2

A further experiment has as its target T5, CD73-ND-E143A (human, UniProt P21589 27-317).
T5 construct: Alanine mutant of CD73-ND
T5 sequence: T1 sequence with E143A
As for the experimental part: as §1, §2

The target of a further experiment is T6, CD73-ND-N185A (human, UniProt P21589 27-317).
T6 construct: Alanine mutant of CD73-ND
T6 sequence: T1 sequence with N185A
The protocol:
as §1, §2

The values below come from US20250066499A1 (SUNSHINE GUOJIAN PHARMACEUTICAL SHANGHAI, published 2025).

Numbering of substitutions follows the chain as printed.

B1: 48A11-HuV33 (antibody, human IgG4, V domains shown)
VH: QVQLVQSGAEVKKPGASVKVSCKASGYTFTSYWMHWVRQAPGQGLEWIGEINPSIGRTNYNEKFKSRVTLTRDTSTSTAYMELSSLRSEDTAVYYCARRVYGTMDYWGQGTLVTVSS
VL: DIQMTQSPSSLSASVGDRVTITCKASQDINSYLSWFQQKPGKSPKLLIYRANIWVDGVPSRFSGSGSGQDYTFTISSLQPEDIATYYCLQYDELYTFGQGTKVEIK
notes: Humanized
As to B1, the “Ratio(Top)” value worked out at 1 fold in the experiment with CD73-ND-his; 1 fold with CD73-ND-K182A; 1.2 fold with CD73-ND-V144A; 1.1 fold with CD73-ND-K180A; 1.1 fold with CD73-ND-E143A; 1 fold with CD73-ND-N185A.
